Assay results published in the supplement of paper PMC10126150.
± gives the standard deviation of the averaged measurements.

tested on: ATP; test: switch fluorescence ratio, 500 uM ATP over buffer (Cy3 cluster intensity, sum of 5 cycles each) (fold (ratio)); higher = stronger signal-on switching upon ATP binding; sequences stand for … in TCGTCGGCAGCGTCAGATGTGTATAAGAGACAGTTTTTTTTTTTTTTTTTTTTTTTTT…TC; conditions: aptamer strand: ATP DNA aptamer (quencher-CACCTGGGGGAGTATTGCGGAGGAAGG + anchor), 100 nM annealed; ATP concentration: 500 uM
How it was run: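 Switching-strand clusters labelled with Cy3 on a modified Illumina MiSeq flow-cell were annealed to 100 nM quencher-labelled ATP aptamer, imaged in selection buffer, and re-imaged after 15 min with 500 uM ATP at 22 °C. This was done over five cycles with NaOH stripping and re-annealing in between. The fluorescence ratio is summed target-cycle over summed buffer-cycle Cy3 intensity per cluster, averaged per switch-domain sequence, excluding clusters outside 100-1000 RFU.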
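Further: ATP exposure 15 min at 22 °C before imaging.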

Row | Sequence | switch fluorescence ratio
1 | TTGATCTT | 1.008 ± 0.0042
2 | GCAGGAATGT | 1.0036 ± 0.00065
3 | GGTTAGAGTA | 1.01 ± 0.025
4 | TTCTATTTTT | 1.03 ± 0.024
5 | TGTACGTAG | 1.01 ± 0.012
6 | AGCTTGCTAT | 0.97 ± 0.011
7 | CGGCGGCACC | 1.0893 ± 0.00071
8 | ATGCGCAGGG | 1.04 ± 0.051
9 | TTTTTTTTCG | 1.05 ± 0.12
10 | TAGAAAATTT | 1 ± 0.022
11 | GGAGAATTAT | 0.991 ± 0.024
12 | GCGGGCGCCC | 1.011 ± 0.006
13 | ACGGTTTCGT | 1.01 ± 0.014
14 | TGACGGGCAC | 1.17 ± 0.036
15 | TTTTTCAGCA | 1.04 ± 0.029
16 | TTTAGATCTT | 0.981 ± 0.012
17 | GGGGTGAGTG | 1.02 ± 0.045
18 | TTATTTGTCA | 0.989 ± 0.013
19 | TTGCAAAAAT | 1 ± 0.046
20 | ACTGTGGGGG | 1.01 ± 0.022
21 | TGCCAGGAGT | 1.05 ± 0.014
22 | TGTGGGGTCT | 1.02 ± 0.038
23 | AGATTCTGTA | 0.97 ± 0.011
24 | TTTAAGAGGG | 0.978 ± 0.038
25 | GGGATGGGGA | 1.02 ± 0.032

Row | Sequence | switch fluorescence ratio
26 | TTTAAGGGAT | 1 ± 0.041
27 | CGGGGACTGG | 0.9726 ± 0.0072
28 | GGTGTCCGGT | 0.998 ± 0.03
29 | TGTAAGCCTT | 1.03 ± 0.079
30 | CAGGGAGGAC | 1.01 ± 0.013
31 | AAAGCCGATG | 1 ± 0.012
32 | TAACGTTTTG | 0.989 ± 0.025
33 | ATGATGTTTG | 0.981 ± 0.039
34 | ACAGAGGTTT | 0.984 ± 0.035
35 | GCGGGAGTTT | 0.9667 ± 0.0015
36 | GGTCAAGGCC | 0.999 ± 0.041
37 | GTCGGGCCAG | 0.985 ± 0.025
38 | AGCAGCTAAG | 0.995 ± 0.01
39 | AATAGGTTTT | 1.02 ± 0.011
40 | GCTGAGGGGG | 0.991 ± 0.041
41 | TAATCGCGGC | 1.31 ± 0.35
42 | ATGTGTGGCT | 1.01 ± 0.022
43 | CTGGTATGGG | 1.01 ± 0.03
44 | ACAGACTCGG | 1.039 ± 0.0036
45 | TTATTTCGCG | 0.986 ± 0.041
46 | AAATTATCCA | 1.016 ± 0.0092
47 | TTTCTGGCTT | 1.02 ± 0.051
48 | GGGGGATAAG | 1 ± 0.028
49 | AGTTGTGCCT | 1.015 ± 0.0036
50 | GCTGTAGTGG | 0.998 ± 0.051

Row | Sequence | switch fluorescence ratio
51 | GAGAGGGTAC | 1.03 ± 0.063
52 | TCTATGGTCT | 0.99 ± 0.011
53 | GAAAGAGGGT | 1.03 ± 0.035
54 | TGTTATTTGA | 0.996 ± 0.0056
55 | CGAGTGTGTG | 0.97 ± 0.024
56 | TTTTATTTGC | 1.01 ± 0.024
57 | TAAGGATTAT | 1.008 ± 0.0024
58 | ATAAGAAGAT | 1.022 ± 0.0014
59 | AGTCAGATGG | 0.981 ± 0.025
60 | GTATGGCAGG | 1.01 ± 0.018
61 | GTTTGTGTCC | 0.965 ± 0.079
62 | GTTGGTAGGT | 0.997 ± 0.019
63 | AGGTTACTCC | 1.07 ± 0.032
64 | TAAAATGAGG | 0.987 ± 0.043
65 | GTTCTGGGAG | 1 ± 0.012
66 | GGGTAAGGGG | 1.05 ± 0.098
67 | ATGTTACGTT | 1.02 ± 0.021
68 | GTGGTCTTGA | 0.981 ± 0.028
69 | TATGACTCGT | 0.99 ± 0.021
70 | GGGGGCGGAT | 0.992 ± 0.024
71 | GGGTGTTTTG | 0.996 ± 0.013
72 | ATTGTTCTGA | 1.01 ± 0.032
73 | CCGAGGGGGG | 1.25 ± 0.35
74 | AGTTAATTTT | 1.0014 ± 0.0007
75 | TGTTGCAATT | 1.01 ± 0.052

Row | Sequence | switch fluorescence ratio
76 | CGTTCATTGT | 0.9942 ± 0.0098
77 | GGCCCCAAAT | 0.9817 ± 0.0041
78 | TACTGTGGTT | 1 ± 0.018
79 | ATGGTAGGTA | 1 ± 0.031
80 | TCCGTGTGTG | 0.989 ± 0.0075
81 | AGAGCAGCTG | 0.998 ± 0.041
82 | TTGGTTGACA | 0.9641 ± 0.0094
83 | AATTCTGGTT | 0.9664 ± 0.0018
84 | GGGTACGGTG | 1.07 ± 0.022
85 | ATGTCTTTGA | 1.03 ± 0.038
86 | GATTATGCTG | 1.17 ± 0.06
87 | CCCGATGAGC | 1.05 ± 0.025
88 | TGGGATGAAG | 0.982 ± 0.01
89 | CAGTTGGACG | 1.04 ± 0.11
90 | GATGTAGTAT | 0.982 ± 0.011
91 | ATTGTAGACC | 1.0225 ± 0.00081
92 | GGTAGATCGG | 1.004 ± 0.0061
93 | GGGAAGACGA | 1.01 ± 0.014
94 | CAATCATGG | 1.01 ± 0.019
95 | GTTTTTATGT | 0.973 ± 0.014
96 | AGTAGTGGGT | 1.02 ± 0.056
97 | GAAATTAAGC | 1.06 ± 0.057
98 | AGCAACATTA | 1.06 ± 0.025
99 | ACAGTCGTAG | 1 ± 0.015
100 | GTTCTCAGTG | 1.01 ± 0.03

Row | Sequence | switch fluorescence ratio
101 | AGGGTTGGG | 1.03 ± 0.029
102 | GTAGTCACGA | 1.01 ± 0.048
103 | TCATGCGGTG | 0.967 ± 0.01
104 | AGAGATTGGG | 0.965 ± 0.017
105 | ATAGTGGGAG | 0.992 ± 0.04
106 | GTATTGGGCT | 0.98036 ± 0.00097
107 | CAGAGGGGAG | 1.03 ± 0.027
108 | GACGGGGGGG | 1 ± 0.023
109 | GAACTGTATG | 1.05 ± 0.056
110 | AAATCGGCTC | 0.989 ± 0.025
111 | GTGTTCTAGT | 0.955 ± 0.012
112 | CACTGAAGTT | 1.026 ± 0.00036
113 | AGAAGTTAGG | 0.973 ± 0.013
114 | GAGTAGGCGC | 0.955 ± 0.032
115 | TATTTGTCAT | 1.02 ± 0.013
116 | GACTTATGAG | 1.01 ± 0.047
117 | TTCAGAGGAT | 1.02 ± 0.048
118 | GGGAACTTGG | 0.986 ± 0.0099
119 | GCTGAGGGGA | 1.03 ± 0.049
120 | GGAGTTTAGC | 1.02 ± 0.029
121 | TGCAGGGGTG | 1.06 ± 0.022
122 | ACGAAAGGGA | 1.11 ± 0.029
123 | TAGATATCTG | 0.974 ± 0.0098
124 | TATAGCAGGG | 1.03 ± 0.018
125 | TGTTGGTGGT | 0.988 ± 0.036

Row | Sequence | switch fluorescence ratio
126 | AGCGGTCAGT | 0.9776 ± 0.0075
127 | GGGTCTCGAG | 0.9866 ± 0.0096
128 | TATTCTTGGG | 1 ± 0.028
129 | ATTGATTTGT | 0.975 ± 0.018
130 | TATAGGGGAT | 1.032 ± 0.0068
131 | ACCCTCGAGA | 1.06 ± 0.06
132 | TAGTTCGGGG | 1.01 ± 0.024
133 | GTAGGGTGCT | 1.042 ± 0.0064
134 | GGTAACGGGG | 1.06 ± 0.065
135 | TTCAGTGATT | 1 ± 0.022
136 | TTGTAGACAG | 1.013 ± 0.0088
137 | ATGAGTCATC | 0.981 ± 0.034
138 | CTGGGAAGAG | 1.01 ± 0.028
139 | TTCCGGGTGT | 1.66 ± 0.75
140 | AAGAAGCAGG | 1.06 ± 0.037
141 | TGCTTGGGGA | 0.983 ± 0.082
142 | CGTGTGTTGA | 1.01 ± 0.013
143 | GGTGTAGGGG | 1.04 ± 0.074
144 | ATGACCTGGG | 0.9769 ± 0.0049
145 | GATTTCAAAT | 1.02 ± 0.023
146 | TTAAAATATC | 0.99948 ± 0.00018
147 | TTAATGTCCT | 1 ± 0.02
148 | CTTGGAATGT | 1.01 ± 0.029
149 | GACAATGGTT | 1 ± 0.027
150 | TTGGGATATG | 1.02 ± 0.065

Row | Sequence | switch fluorescence ratio
151 | GGGGGCGCAT | 0.96 ± 0.066
152 | AGTTCAATT | 0.9971 ± 0.0032
153 | TAGGGTCGGG | 0.9466 ± 0.0037
154 | AGAAGGGGGG | 0.998 ± 0.022
155 | CGTATTCTGA | 0.966 ± 0.064
156 | AGACCGCAGT | 1.137 ± 0.0071
157 | GTGTATAGTG | 0.982 ± 0.018
158 | TAAAGATGAG | 1.0091 ± 0.00022
159 | TGGACTCGGA | 1.03 ± 0.071
160 | GTCAACTGAG | 1.05 ± 0.04
161 | AACGGTTGAT | 0.974 ± 0.015
162 | CGGGTAGGGT | 0.998 ± 0.039
163 | GGTGTTAATT | 0.9888 ± 0.0093
164 | GGCATAGATT | 0.976 ± 0.066
165 | TTATTATCAG | 1.013 ± 0.0021
166 | ACGATACTTT | 1.37 ± 0.015
167 | ATTTGGGGGT | 0.997 ± 0.023
168 | TTTGGCGTTG | 0.9881 ± 0.0086
169 | TGTGATAGGG | 0.978 ± 0.06
170 | GCTCGGCCCG | 1.04 ± 0.061
171 | GCGAAAAAGA | 0.98 ± 0.031
172 | GAGGGGGGAG | 0.986 ± 0.027
173 | GACGATTATA | 1.028 ± 0.0017
174 | TTTAATTCAT | 1.008 ± 0.0088
175 | TAGGAGGCGC | 0.937 ± 0.064

Row | Sequence | switch fluorescence ratio
176 | TTTTTCTGGT | 1.01 ± 0.075
177 | TCGTCAACGG | 1.01 ± 0.023
178 | CTTGTAAGGT | 0.976 ± 0.022
179 | TGTGGGTTTG | 0.958 ± 0.012
180 | TTTACTTTGG | 0.982 ± 0.034
181 | TTAGGTTAAA | 1.06 ± 0.12
182 | TTAAAGGATC | 0.968 ± 0.028
183 | TTCGTGTTTT | 1.04 ± 0.059
184 | GGCCCCTGGC | 1.04 ± 0.063
185 | GGGGATAAAA | 1.01 ± 0.034
186 | CATGCGCTTC | 2.39 ± 0.12
187 | TAGGGGTAGA | 1.017 ± 0.0054
188 | TTTTATGACA | 1.02 ± 0.033
189 | CAATTCAGAT | 0.952 ± 0.028
190 | ATGTCCTTAT | 0.988 ± 0.029
191 | AGTAGTTGCC | 1.014 ± 0.0021
192 | TAAACTCCTT | 1.05 ± 0.035
193 | TTTTTGGGGT | 0.999 ± 0.034
194 | CAGTCGACTG | 1.01 ± 0.019
195 | CCGGGATGGG | 1.03 ± 0.022
196 | AGGAGGGGGC | 1 ± 0.048
197 | TTTTAGCATT | 0.992 ± 0.062
198 | AGTCCGGAGT | 1.05 ± 0.023
199 | GCAGGCGGGC | 0.991 ± 0.014
200 | CTGTGTATGT | 1.02 ± 0.061
